The results in this text go back to patent US20260216326A1 (PROMETHEUS BIOSCIENCES, published 2026).

T1: human TL1A (Fitzgerald #30R-AT070) (human, UniProt O95150 72-251, limits assumed)
T1 construct: Coated on the ELISA plate at 1 ug/mL; also called TNFSF15
T1 sequence (looked up): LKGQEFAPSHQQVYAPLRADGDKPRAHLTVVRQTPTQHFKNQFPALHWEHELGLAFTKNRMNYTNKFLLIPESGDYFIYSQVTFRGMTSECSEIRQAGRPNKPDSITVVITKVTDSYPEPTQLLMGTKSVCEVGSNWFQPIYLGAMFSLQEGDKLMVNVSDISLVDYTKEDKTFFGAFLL

B1: A92 (antibody, human IgG1, V domains shown)
VH: QVQLVQSGAEVKKPGASVKVSCKASGFDIQDTYMHWVRQAPGQGLEWMGRIEPASGHIKYDPKFQGRVTMTRDTSTSTVYLELSSLRSEDTAVYYCARSGGLPDWWGQGTTVTVSS
VL: EIVLTQSPGTLSLSPGERATLSCRASSSVSYMYWYQQKPGQAPRLLIYATSNLASGIPDRFSGSGSGTDFTLTISRLEPEDFAVYYCQQWEGNPRTFGGGTKLEIK
notes: human IgG1/kappa (pFuse vectors), culture supernatant
B2: A97 (antibody, human IgG1, V domains shown)
VH: QVQLVQSGAEVKKPGASVKVSCKASGFDIQDTYMHWVRQAPGQGLEWMGRIEPASGHIKYDPKFQVRVTMTRDTSTSTVYMELSSLRSEDTAVYYCARSGGLPDWWGQGTTVTVSS
VL: EIVLTQSPGTLSLSPGERATLSCRASSSVSYMYWYQQKPGQAPRLLIYATSNLASGIPDRFSGSGSGTDFTLTISRLEPEDFAVYYCQQWEGNPRTFGGGTKLEIK
notes: as for B1
B3: A109 (antibody, human IgG1, V domains shown)
VH: QVQLVQSGAEVKKPGASVKVSCKASGFDIQDTYMHWVRQAPGQGLEWMGRIEPASGHIKYDPKFQGRVTMTRDTSTSTAYMELSSLRSEDTAVYYCARSGGLPDWWGQGTTVTVSS
VL: EIVLTQSPGTLSLSPGERATLSCRASSSVSYMYWYQQKPGQAPRPWIYATSNLASGIPDRFSGSGSGTDFTLTISRLEPEDFAVYYCQQWEGNPRTFGGGTKLEIK
notes: as for B1
B4: A101 (antibody, human IgG1, V domains shown)
VH: QVQLVQSGAEVKKPGASVKVSCKASGFDIQDTYMHWVKQRPGQGLEWMGRIDPASGHTKYDPKFQVRATITTDTSTSTAYLELSSLRSEDTAVYYCARSGGLPDVWGQGTTVTVSS
VL: EIVLTQSPGTLSLSPGERATLSCRASSSVSYMYWYQQKPGQAPRLLIYATSNLASGIPDRFSGSGSGTDFTLTISRLEPEDFAVYYCQQWKGNPRTFGGGTKLEIK
notes: as for B1
B5: A94 (antibody, human IgG1, V domains shown)
VH: QVQLVQSGAEVKKPGASVKVSCKASGFDIQDTYMHWVRQAPGQGLEWMGRIEPASGHIKYDPKFQVRATITRDTSTSTVYMELSSLRSEDTAVYYCARSGGLPDWWGQGTTVTVSS
VL: EIVLTQSPGTLSLSPGERATLSCRASSSVSYMYWYQQKPGQAPRLLIYATSNLASGIPDRFSGSGSGTDFTLTISRLEPEDFAVYYCQQWEGNPRTFGGGTKLEIK
notes: as for B1
B6: A99 (antibody, human IgG1, V domains shown)
VH: QVQLVQSGAEVKKPGASVKVSCKASGFDIQDTYMHWVRQAPGQGLEWMGRIEPASGHIKYDPKFQVRVTITRDTSTSTVYMELSSLRSEDTAVYYCARSGGLPDWWGQGTTVTVSS
VL: EIVLTQSPGTLSLSPGERATLSCRASSSVSYMYWYQQKPGQAPRLLIYATSNLASGIPDRFSGSGSGTDFTLTISRLEPEDFAVYYCQQWEGNPRTFGGGTKLEIK
notes: as for B1
B7: A111 (antibody, human IgG1, V domains shown)
VH: QVQLVQSGAEVKKPGASVKVSCKASGFDIQDTYMHWVRQRPGQGLEWMGRIEPASGHIKYDPKFQGRVTMTRDTSTSTVYMELSSLRSEDTAVYYCARSGGLPDWWGQGTTVTVSS
VL: EIVLTQSPGTLSLSPGERATLSCRASSSVSYMYWYQQKPGQAPRPWIYATSNLASGIPDRFSGSGSGTDFTLTISRLEPEDFAVYYCQQWEGNPRTFGGGTKLEIK
notes: as for B1
B8: A104 (antibody, human IgG1, V domains shown)
VH: QVQLVQSGAEVKKPGASVKVSCKASGFDIQDTYMHWVRQAPGQGLEWIGRIDPASGHTKYDPKFQVRATITTDTSTSTAYLELSSLRSEDTAVYYCARSGGLPDVWGQGTTVTVSS
VL: EIVLTQSPGTLSLSPGERATLSCRASSSVSYMYWYQQKPGQAPRLLIYATSNLASGIPDRFSGSGSGTDFTLTISRLEPEDFAVYYCQQWKGNPRTFGGGTKLEIK
notes: as for B1
B9: A102 (antibody, human IgG1, V domains shown)
VH: QVQLVQSGAEVKKPGASVKVSCKASGFDIQDTYMHWVKQRPGQGLEWIGRIDPASGHTKYDPKFQVRVTITTDTSTSTAYLELSSLRSEDTAVYYCARSGGLPDVWGQGTTVTVSS
VL: EIVLTQSPGTLSLSPGERATLSCRASSSVSYMYWYQQKPGQAPRLLIYATSNLASGIPDRFSGSGSGTDFTLTISRLEPEDFAVYYCQQWKGNPRTFGGGTKLEIK
notes: as for B1
B10: A100 (antibody, human IgG1, V domains shown)
VH: QVQLVQSGAEVKKPGASVKVSCKASGFDIQDTYMHWVRQRPGQGLEWIGRIDPASGHTKYDPKFQVRATITTDTSTSTAYLELSSLRSEDTAVYYCARSGGLPDVWGQGTTVTVSS
VL: EIVLTQSPGTLSLSPGERATLSCRASSSVSYMYWYQQKPGQAPRLLIYATSNLASGIPDRFSGSGSGTDFTLTISRLEPEDFAVYYCQQWKGNPRTFGGGTKLEIK
notes: as for B1
B11: A108 (antibody, human IgG1, V domains shown)
VH: EVQLVQSGAEVKKPGASVKVSCKASGFDIQDTYMHWVRQAPGQGLEWMGRIEPASGHIKYDPKFQGRVTMTRDTSTSTVYMELSSLRSEDTAVYYCARSGGLPDWWGQGTTVTVSS
VL: EIVLTQSPGTLSLSPGERATLSCRASSSVSYMYWYQQKPGQAPRPWIYATSNLASGIPDRFSGSGSGTDFTLTISRLEPEDFAVYYCQQWEGNPRTFGGGTKLEIK
notes: as for B1
B12: A103 (antibody, human IgG1, V domains shown)
VH: QVQLVQSGAEVKKPGASVKVSCKASGFDIQDTYMHWVKQRPGQGLEWIGRIDPASGHTKYDPKFQVRVTITRDTSTSTAYLELSSLRSEDTAVYYCARSGGLPDVWGQGTTVTVSS
VL: EIVLTQSPGTLSLSPGERATLSCRASSSVSYMYWYQQKPGQAPRLLIYATSNLASGIPDRFSGSGSGTDFTLTISRLEPEDFAVYYCQQWKGNPRTFGGGTKLEIK
notes: as for B1
B13: A96 (antibody, human IgG1, V domains shown)
VH: QVQLVQSGAEVKKPGASVKVSCKASGFDIQDTYMHWVRQAPGQGLEWMGRIEPASGHIKYDPKFQGRATMTRDTSTSTVYMELSSLRSEDTAVYYCARSGGLPDWWGQGTTVTVSS
VL: EIVLTQSPGTLSLSPGERATLSCRASSSVSYMYWYQQKPGQAPRPWIYATSNLASGIPDRFSGSGSGTDFTLTISRLEPEDFAVYYCQQWEGNPRTFGGGTKLEIK
notes: as for B1
B14: A113 (antibody, human IgG1, V domains shown)
VH: QVQLVQSGAEVKKPGASVKVSCKASGFDIQDTYMHWVRQAPGQGLEWMGRIEPASGHIKYDPKFQVRATITRDTSTSTVYMELSSLRSEDTAVYYCARSGGLPDWWGQGTTVTVSS
VL: EIVLTQSPGTLSLSPGERATLSCRASSSVSYMYWYQQKPGQAPRPWIYATSNLASGIPDRFSGSGSGTDFTLTISRLEPEDFAVYYCQQWEGNPRTFGGGTKLEIK
notes: as for B1
B15: A112 (antibody, human IgG1, V domains shown)
VH: QVQLVQSGAEVKKPGASVKVSCKASGFDIQDTYMHWVKQRPGQGLEWMGRIEPASGHIKYDPKFQGRVTMTRDTSTSTVYMELSSLRSEDTAVYYCARSGGLPDWWGQGTTVTVSS
VL: EIVLTQSPGTLSLSPGERATLSCRASSSVSYMYWYQQKPGQAPRPWIYATSNLASGIPDRFSGSGSGTDFTLTISRLEPEDFAVYYCQQWEGNPRTFGGGTKLEIK
notes: as for B1
B16: A107 (antibody, human IgG1, V domains shown)
VH: QVQLVQSGAEVKKPGASVKVSCKASGFDIQDTYMHWVKQRPGQGLEWIGRIDPASGHTKYDPKFQVRATITTDTSTSTAYLELSSLRSEDTAVYYCARSGGLPDVWGQGTTVTVSS
VL: EIVLTQSPGTLSLSPGERATLSCRASSSVSYMYWYQQKPGQAPRLLIYATSNLASGIPDRFSGSGSGTDFTLTISRLEPEDFAVYYCQQWEGNPRTFGGGTKLEIK
notes: as for B1
B17: A98 (antibody, human IgG1, V domains shown)
VH: QVQLVQSGAEVKKPGASVKVSCKASGFDIQDTYMHWVRQAPGQGLEWMGRIEPASGHIKYDPKFQVRATMTRDTSTSTVYMELSSLRSEDTAVYYCARSGGLPDWWGQGTTVTVSS
VL: EIVLTQSPGTLSLSPGERATLSCRASSSVSYMYWYQQKPGQAPRLLIYATSNLASGIPDRFSGSGSGTDFTLTISRLEPEDFAVYYCQQWEGNPRTFGGGTKLEIK
notes: as for B1
B18: A105 (antibody, human IgG1, V domains shown)
VH: QVQLVQSGAEVKKPGASVKVSCKASGFDIQDTYMHWVKQRPGQGLEWIGRIDPASGHTKYDPKFQVRATITTDTSTSTVYMELSSLRSEDTAVYYCARSGGLPDVWGQGTTVTVSS
VL: EIVLTQSPGTLSLSPGERATLSCRASSSVSYMYWYQQKPGQAPRLLIYATSNLASGIPDRFSGSGSGTDFTLTISRLEPEDFAVYYCQQWKGNPRTFGGGTKLEIK
notes: as for B1
B19: A93 (antibody, human IgG1, V domains shown)
VH: QVQLVQSGAEVKKPGASVKVSCKASGFDIQDTYMHWVRQAPGQGLEWMGRIEPASGHIKYDPKFQGRVTMTRDTSTSTAYLELSSLRSEDTAVYYCARSGGLPDWWGQGTTVTVSS
VL: EIVLTQSPGTLSLSPGERATLSCRASSSVSYMYWYQQKPGQAPRLLIYATSNLASGIPDRFSGSGSGTDFTLTISRLEPEDFAVYYCQQWEGNPRTFGGGTKLEIK
notes: as for B1
B20: A95 (antibody, human IgG1, V domains shown)
VH: QVQLVQSGAEVKKPGASVKVSCKASGFDIQDTYMHWVRQAPGQGLEWMGRIEPASGHIKYDPKFQGRATITTDTSTSTVYMELSSLRSEDTAVYYCARSGGLPDWWGQGTTVTVSS
VL: EIVLTQSPGTLSLSPGERATLSCRASSSVSYMYWYQQKPGQAPRPWIYATSNLASGIPDRFSGSGSGTDFTLTISRLEPEDFAVYYCQQWEGNPRTFGGGTKLEIK
notes: as for B1
B21: A110 (antibody, human IgG1, V domains shown)
VH: QVQLVQSGAEVKKPGASVKVSCKASGFDIQDTYMHWVKQAPGQGLEWMGRIEPASGHIKYDPKFQGRVTMTRDTSTSTVYMELSSLRSEDTAVYYCARSGGLPDWWGQGTTVTVSS
VL: EIVLTQSPGTLSLSPGERATLSCRASSSVSYMYWYQQKPGQAPRPWIYATSNLASGIPDRFSGSGSGTDFTLTISRLEPEDFAVYYCQQWEGNPRTFGGGTKLEIK
notes: as for B1

The assay concerns the target T1, human TL1A (Fitzgerald #30R-AT070). As to the kind of experiment: ELISA titration, coated human TL1A, culture supernatant.
As a reminder, the Kd is the concentration at which binding is half-saturated. Consider B1, for which the dissociation constant Kd was determined as 0.121 nM.
As for B2, the figure is 0.071 nM.
B3 returned a Kd of 0.05 nM.
As for B4, the figure is 0.096 nM.
As for B5, the figure is 0.081 nM; as for B6, 0.102 nM.
As for B7, the figure is 0.068 nM; as for B8, 0.108 nM.
On to B9, for which the affinity, expressed as Kd, was 0.104 nM.
As for B10, the figure is 0.084 nM; as for B11, 0.055 nM; as for B12, 0.107 nM.
As for B13, the figure is 0.095 nM; as for B14, 0.05 nM.
As for B15, the figure is 0.054 nM; as for B16, 0.071 nM; as for B17, 0.14 nM.
In the case of B18, the Kd worked out at 0.11 nM.
As for B19, the figure is 0.117 nM; as for B20, 0.105 nM.
Molecule B21 showed a dissociation constant Kd of 0.056 nM.
